Test results: patent US20220378923A1, “BET DEGRADER” (KYOWA KIRIN CO., LTD., priority 2019, published 2022)

Tests used:
[1] = molecular target: DCAF16 with HaloTag added to the C-terminal (expressed from plasmid pFC27K_DCAF16) (human) (UniProt Q9NXF7); experiment: NanoBRET in HEK293 cells, Nluc-BRD2 and DCAF16-HaloTag with 618 Ligand, bortezomib; DMSO control without test compound; mean of n=3
[2] = molecular target: DCAF16 with HaloTag added to the C-terminal (expressed from plasmid pFC27K_DCAF16) (human) (UniProt Q9NXF7); experiment: NanoBRET in HEK293 cells, Nluc-BRD2 and DCAF16-HaloTag with 618 Ligand, MLN4924; 1.0 umol/L compound 8j
[3] = molecular target: DCAF16 with HaloTag added to the C-terminal (expressed from plasmid pFC27K_DCAF16) (human) (UniProt Q9NXF7); experiment: NanoBRET in HEK293 cells, Nluc-BRD2 and DCAF16-HaloTag with 618 Ligand, bortezomib; 10 umol/L compound 7o; mean of n=3
[4] = molecular target: DCAF16 with HaloTag added to the C-terminal (expressed from plasmid pFC27K_DCAF16) (human) (UniProt Q9NXF7); experiment: NanoBRET in HEK293 cells, Nluc-BRD2 and DCAF16-HaloTag with 618 Ligand, MLN4924; 1.0 umol/L compound 12c
[5] = molecular target: DCAF16 with HaloTag added to the C-terminal (expressed from plasmid pFC27K_DCAF16) (human) (UniProt Q9NXF7); experiment: NanoBRET in HEK293 cells, Nluc-BRD2 and DCAF16-HaloTag with 618 Ligand, bortezomib; 10 umol/L compound 15a; mean of n=3
[6] = molecular target: DCAF16 with HaloTag added to the C-terminal (expressed from plasmid pFC27K_DCAF16) (human) (UniProt Q9NXF7); experiment: NanoBRET in HEK293 cells, Nluc-BRD2 and DCAF16-HaloTag with 618 Ligand, MLN4924; 1.0 umol/L compound 8a
[7] = molecular target: DCAF16 with HaloTag added to the C-terminal (expressed from plasmid pFC27K_DCAF16) (human) (UniProt Q9NXF7); experiment: NanoBRET in HEK293 cells, Nluc-BRD2 and DCAF16-HaloTag with 618 Ligand, MLN4924; 1.0 umol/L compound 15a
[8] = molecular target: DCAF16 with HaloTag added to the C-terminal (expressed from plasmid pFC27K_DCAF16) (human) (UniProt Q9NXF7); experiment: NanoBRET in HEK293 cells, Nluc-BRD2 and DCAF16-HaloTag with 618 Ligand, MLN4924; 1.0 umol/L compound 7o
[9] = molecular target: DCAF16 with HaloTag added to the C-terminal (expressed from plasmid pFC27K_DCAF16) (human) (UniProt Q9NXF7); experiment: NanoBRET in HEK293 cells, Nluc-BRD2 and DCAF16-HaloTag with 618 Ligand, MLN4924; DMSO control without test compound
[10] = molecular target: DCAF16 with HaloTag added to the C-terminal (expressed from plasmid pFC27K_DCAF16) (human) (UniProt Q9NXF7); experiment: NanoBRET in HEK293 cells, Nluc-BRD2 and DCAF16-HaloTag with 618 Ligand, MLN4924; 1.0 umol/L compound 1l
[11] = molecular target: DCAF16 with HaloTag added to the C-terminal (expressed from plasmid pFC27K_DCAF16) (human) (UniProt Q9NXF7); experiment: NanoBRET in HEK293 cells, Nluc-BRD2 and DCAF16-HaloTag with 618 Ligand, bortezomib; 10 umol/L compound 12c; mean of n=3
[12] = molecular target: DCAF16 with HaloTag added to the C-terminal (expressed from plasmid pFC27K_DCAF16) (human) (UniProt Q9NXF7); experiment: NanoBRET in HEK293 cells, Nluc-BRD2 and DCAF16-HaloTag with 618 Ligand, MLN4924; 1.0 umol/L compound 6k
[13] = molecular target: DCAF16 with HaloTag added to the C-terminal (expressed from plasmid pFC27K_DCAF16) (human) (UniProt Q9NXF7); experiment: NanoBRET in HEK293 cells, Nluc-BRD2 and DCAF16-HaloTag with 618 Ligand, MLN4924; 1.0 umol/L compound 3e
[14] = molecular target: DCAF16 with HaloTag added to the C-terminal (expressed from plasmid pFC27K_DCAF16) (human) (UniProt Q9NXF7); experiment: NanoBRET in HEK293 cells, Nluc-BRD2 and DCAF16-HaloTag with 618 Ligand, MLN4924; 1.0 umol/L compound 7p
[15] = molecular target: DCAF16 with HaloTag added to the C-terminal (expressed from plasmid pFC27K_DCAF16) (human) (UniProt Q9NXF7); experiment: NanoBRET in HEK293 cells, Nluc-BRD2 and DCAF16-HaloTag with 618 Ligand, bortezomib; 10 umol/L compound 3e; mean of n=3
[16] = molecular target: DCAF16 with HaloTag added to the C-terminal (expressed from plasmid pFC27K_DCAF16) (human) (UniProt Q9NXF7); experiment: NanoBRET in HEK293 cells, Nluc-BRD2 and DCAF16-HaloTag with 618 Ligand, bortezomib; 10 umol/L compound 3a; mean of n=3
[17] = molecular target: DCAF16 with HaloTag added to the C-terminal (expressed from plasmid pFC27K_DCAF16) (human) (UniProt Q9NXF7); experiment: NanoBRET in HEK293 cells, Nluc-BRD2 and DCAF16-HaloTag with 618 Ligand, bortezomib; 10 umol/L compound 3b; mean of n=3
[18] = molecular target: DCAF16 with HaloTag added to the C-terminal (expressed from plasmid pFC27K_DCAF16) (human) (UniProt Q9NXF7); experiment: NanoBRET in HEK293 cells, Nluc-BRD2 and DCAF16-HaloTag with 618 Ligand, bortezomib; 10 umol/L compound 1l; mean of n=3
[19] = molecular target: DCAF16 with HaloTag added to the C-terminal (expressed from plasmid pFC27K_DCAF16) (human) (UniProt Q9NXF7); experiment: NanoBRET in HEK293 cells, Nluc-BRD2 and DCAF16-HaloTag with 618 Ligand, MLN4924; 1.0 umol/L comparative compound 1 (compound P3, known bivalent BET inhibitor)
[20] = molecular target: DCAF16 with HaloTag added to the C-terminal (expressed from plasmid pFC27K_DCAF16) (human) (UniProt Q9NXF7); experiment: NanoBRET in HEK293 cells, Nluc-BRD2 and DCAF16-HaloTag with 618 Ligand, bortezomib; 10 umol/L compound 6k; mean of n=3
[21] = molecular target: DCAF16 with HaloTag added to the C-terminal (expressed from plasmid pFC27K_DCAF16) (human) (UniProt Q9NXF7); experiment: NanoBRET in HEK293 cells, Nluc-BRD2 and DCAF16-HaloTag with 618 Ligand, bortezomib; 10 umol/L compound 1h; mean of n=3
[22] = molecular target: DCAF16 with HaloTag added to the C-terminal (expressed from plasmid pFC27K_DCAF16) (human) (UniProt Q9NXF7); experiment: NanoBRET in HEK293 cells, Nluc-BRD2 and DCAF16-HaloTag with 618 Ligand, bortezomib; 10 umol/L compound 8a; mean of n=3
[23] = molecular target: DCAF16 with HaloTag added to the C-terminal (expressed from plasmid pFC27K_DCAF16) (human) (UniProt Q9NXF7); experiment: NanoBRET in HEK293 cells, Nluc-BRD2 and DCAF16-HaloTag with 618 Ligand, MLN4924; 1.0 umol/L compound 15f
[24] = molecular target: DCAF16 with HaloTag added to the C-terminal (expressed from plasmid pFC27K_DCAF16) (human) (UniProt Q9NXF7); experiment: NanoBRET in HEK293 cells, Nluc-BRD2 and DCAF16-HaloTag with 618 Ligand, MLN4924; 1.0 umol/L compound 3a
[25] = molecular target: DCAF16 with HaloTag added to the C-terminal (expressed from plasmid pFC27K_DCAF16) (human) (UniProt Q9NXF7); experiment: NanoBRET in HEK293 cells, Nluc-BRD2 and DCAF16-HaloTag with 618 Ligand, bortezomib; 10 umol/L compound 7p; mean of n=3
[26] = molecular target: DCAF16 with HaloTag added to the C-terminal (expressed from plasmid pFC27K_DCAF16) (human) (UniProt Q9NXF7); experiment: NanoBRET in HEK293 cells, Nluc-BRD2 and DCAF16-HaloTag with 618 Ligand, bortezomib; 10 umol/L compound 15f; mean of n=3
[27] = molecular target: DCAF16 with HaloTag added to the C-terminal (expressed from plasmid pFC27K_DCAF16) (human) (UniProt Q9NXF7); experiment: NanoBRET in HEK293 cells, Nluc-BRD2 and DCAF16-HaloTag with 618 Ligand, MLN4924; 1.0 umol/L compound 3b
[28] = molecular target: DCAF16 with HaloTag added to the C-terminal (expressed from plasmid pFC27K_DCAF16) (human) (UniProt Q9NXF7); experiment: NanoBRET in HEK293 cells, Nluc-BRD2 and DCAF16-HaloTag with 618 Ligand, MLN4924; 1.0 umol/L compound 1h
[29] = molecular target: DCAF16 with HaloTag added to the C-terminal (expressed from plasmid pFC27K_DCAF16) (human) (UniProt Q9NXF7); experiment: NanoBRET in HEK293 cells, Nluc-BRD2 and DCAF16-HaloTag with 618 Ligand, bortezomib; 10 umol/L compound 8j; mean of n=3

Sequence of DCAF16 with HaloTag added to the C-terminal (expressed from plasmid pFC27K_DCAF16) (human) (Q9NXF7 whole entry): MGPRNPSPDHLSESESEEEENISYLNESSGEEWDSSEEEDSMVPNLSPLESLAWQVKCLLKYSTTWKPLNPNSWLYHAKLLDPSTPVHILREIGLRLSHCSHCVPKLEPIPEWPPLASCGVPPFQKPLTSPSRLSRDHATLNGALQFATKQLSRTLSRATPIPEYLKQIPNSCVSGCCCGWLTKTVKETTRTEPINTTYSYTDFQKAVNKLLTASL

Q: “BRD2 with an Nluc tag added to the N-terminal (expressed from plasmid pFN31A_BRD2) (from UniProt P25440 1-801)” was tested. Which BRET Ratio [1] did it give?
A: 1.51

Q: What about the BRET Ratio [2] of the same substance?
A: 11.9

Q: And the BRET Ratio [3]?
A: 6.69

Q: What about the BRET Ratio [4] of the same substance?
A: 13.2

Q: What about the BRET Ratio [5] of the same substance?
A: 5.88

Q: And the BRET Ratio [6]?
A: 12.4

Q: And the BRET Ratio [7]?
A: 9.59

Q: And the BRET Ratio [8]?
A: 13

Q: And the BRET Ratio [9]?
A: 0.99

Q: And the BRET Ratio [10]?
A: 14.9

Q: And the BRET Ratio [11]?
A: 7.6

Q: And the BRET Ratio [12]?
A: 12.6

Q: And the BRET Ratio [13]?
A: 9.58

Q: What about the BRET Ratio [14] of the same substance?
A: 11.6

Q: And the BRET Ratio [15]?
A: 5.96

Q: What about the BRET Ratio [16] of the same substance?
A: 8.51

Q: What about the BRET Ratio [17] of the same substance?
A: 6.06

Q: And the BRET Ratio [18]?
A: 8.03

Q: And the BRET Ratio [19]?
A: 1.93

Q: And the BRET Ratio [20]?
A: 7.07

Q: What about the BRET Ratio [21] of the same substance?
A: 6.84

Q: And the BRET Ratio [22]?
A: 7.27

Q: What about the BRET Ratio [23] of the same substance?
A: 12.4

Q: What about the BRET Ratio [24] of the same substance?
A: 14.5

Q: And the BRET Ratio [25]?
A: 6.8

Q: And the BRET Ratio [26]?
A: 5.99

Q: And the BRET Ratio [27]?
A: 9.69

Q: And the BRET Ratio [28]?
A: 10.9

Q: What about the BRET Ratio [29] of the same substance?
A: 7.07
